Measurements: the supplement of paper PMC9170038

Experiments:
MS2 coat protein [1] = assay: apparent KD of MS2 coat protein; designed switch direction (-1 OFF switch, 1 ON switch): -1; higher = weaker reporter binding; details: Eterna round: R98
Procedure: (§1)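 RNA-MaP: designed FMN/MS2 RNA switches (84 nt design region) are transcribed on-chip within common flanks and titrated with SNAP-549-labelled MS2 coat protein (about 1-3000 nM) in 100 mM Tris pH 7.5, 80 mM KCl, 4 mM MgCl2, without or with 200 uM FMN. Median apparent KD per design; activation ratio = KD,OFF / KD,ON.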

MS2 coat protein [2] = assay: apparent KD of MS2 coat protein; higher = weaker reporter binding; details: Eterna round: R101
Procedure: as §1

## GCGCGCGCGUCAGGAUAUACAUGAGGAUCACCCAUGUGUGCGCGCGCGCGCGCGCGCGCGCGCGUGUAGAAGGGACGCUGUCGC [Incredible-Exclusion NG 2]
MS2 coat protein [1]; input ligand: FMN 200 uM
  apparent KD of MS2 coat protein: 20.6 nM
MS2 coat protein [1]; input ligand: none
  apparent KD of MS2 coat protein: 14.4 nM

## AAAAUAAAGGCAGGAUAUACAUGAAUAUAUAAUAUAAUAUAUAAUAUAACAUGAGGAUCACCCAUGUAGAAGGGCCAAAAUAAA [LRO026_Exclusion NG 2]
MS2 coat protein [1]; input ligand: FMN 200 uM
  apparent KD of MS2 coat protein: 88.1 nM
MS2 coat protein [1]; input ligand: none
  apparent KD of MS2 coat protein: 46.4 nM

## GAGAAGAAGUUAGGAUAUUGGAUAGGGACGGAAUAAGAAGGAGCAAGGGACAUGAGGAUCACCCAUGUAGAAGAAGAGAUCCUC [X-NG1_50] (puzzle (switch architecture): Exclusion NG 1)
MS2 coat protein [2]; input ligand: FMN 200 uM
  apparent KD of MS2 coat protein: 10.9 nM
MS2 coat protein [2]; input ligand: none
  apparent KD of MS2 coat protein: 26.7 nM

## AAAUCUCGAGCCGACGGGAGAGUACAUGAGGAUCACCCAUGUGAGGAUAUCCCUGAGAAGACGGCGGAGAAGGCACUGGGUAGG [Erzaribeve] (puzzle (switch architecture): Exclusion NG 3)
MS2 coat protein [2]; input ligand: FMN 200 uM
  apparent KD of MS2 coat protein: 9.95 nM
MS2 coat protein [2]; input ligand: none
  apparent KD of MS2 coat protein: 8.6 nM

## UAAAUAAAUCCUAGAGGAUCACCCUAGGAUAUCACCGUCGAGGUGCCAUAAUGGCACCUCGACGGUGAGAAGGAGGUUGAUAAA [#SharedSequence - SLExNG3: 6] (puzzle (switch architecture): Small Loop Exclusion NG 3)
MS2 coat protein [2]; input ligand: FMN 200 uM
  apparent KD of MS2 coat protein: 13 nM
MS2 coat protein [2]; input ligand: none
  apparent KD of MS2 coat protein: 8.33 nM

## AUAUAUAUAUAGAAGGACAUGAGGAUCACCCAUGUCGCCGGGCCCGGGAAACCGGGCCCGGCCAUGUAGGAUAUAUAUAUAUAU [#This is a good prank 12] (puzzle (switch architecture): Inverted Exclusion NG 2)
MS2 coat protein [2]; input ligand: FMN 200 uM
  apparent KD of MS2 coat protein: 5.57 nM
MS2 coat protein [2]; input ligand: none
  apparent KD of MS2 coat protein: 3.55 nM

## AAAUAAAUUCAAGGAUAUCAGUGGCAAAGCCACUGAGAAGGUGAGGAUCACCCACCUAUGAUCACAGGUGACGAAAGUCACCUG [#SharedSequence ExNG1 - 38] (puzzle (switch architecture): Exclusion NG 1)
MS2 coat protein [2]; input ligand: FMN 200 uM
  apparent KD of MS2 coat protein: 11.4 nM
MS2 coat protein [2]; input ligand: none
  apparent KD of MS2 coat protein: 11.3 nM

## UAUUAUUUGGAGAAGGACAUGAGGAUCACCCAUGUCGCCGGGCCCGGGAAACCGGGCCCGGCCAUGUAGGAUAUCCGGAUGGUA [#This is a good prank 4] (puzzle (switch architecture): Inverted Exclusion NG 2)
MS2 coat protein [2]; input ligand: FMN 200 uM
  apparent KD of MS2 coat protein: 7.61 nM
MS2 coat protein [2]; input ligand: none
  apparent KD of MS2 coat protein: 7.31 nM

## AAUAUAAAGAGCUGGUCUCAAAUAACAUGAGGAUCACCCAUGUAGGAUAUCAGCACGAUAAGUGCUGAGAAGGACAUCCAGCUC [Denovo 49]
MS2 coat protein [1]; input ligand: FMN 200 uM
  apparent KD of MS2 coat protein: 18.9 nM
MS2 coat protein [1]; input ligand: none
  apparent KD of MS2 coat protein: 15.9 nM

## AAAUAAACUCAAGGAUAUGACUCCGAAACGGAGUCAGAAGGUGAGGAUCACCCACCUAAGAUCAGACCUCAGGAAACUGAGGUC [#SharedSequence ExNG1 - 36] (puzzle (switch architecture): Exclusion NG 1)
MS2 coat protein [2]; input ligand: FMN 200 uM
  apparent KD of MS2 coat protein: 13.2 nM
MS2 coat protein [2]; input ligand: none
  apparent KD of MS2 coat protein: 6.46 nM

## AAAUGCCUGUCGAUGCUCGACAUGAGGAUCACCCAUGUAUAGCAGGAUAUGCAGAACUGACUCGUGCAGAAGGGCUAUACCUAA (puzzle (switch architecture): Exclusion NG 3)
MS2 coat protein [2]; input ligand: FMN 200 uM
  apparent KD of MS2 coat protein: 52.8 nM
MS2 coat protein [2]; input ligand: none
  apparent KD of MS2 coat protein: 18.7 nM

## GCAGCUAAUGCAGGAUAUCAGCACGUGUAGUGCUGAGAAGGGCACAUGAGGAUCAAAACUGUGAUCAAUUAAUAUUAAUGCUGC [salish99#hingeEx3_55-58_001] (puzzle (switch architecture): Exclusion NG 1)
MS2 coat protein [2]; input ligand: FMN 200 uM
  apparent KD of MS2 coat protein: 8.28 nM
MS2 coat protein [2]; input ligand: none
  apparent KD of MS2 coat protein: 9.12 nM

## UUACUCAUGUAAGGAUAUGCAGCCGAAACGGCUGCAGAAGGUACUAUAAUACAUGAGGAUCACCCAUGUAAAAUAAAUAAGGUU (puzzle (switch architecture): Same State NG 1)
MS2 coat protein [2]; input ligand: FMN 200 uM
  apparent KD of MS2 coat protein: 19.5 nM
MS2 coat protein [2]; input ligand: none
  apparent KD of MS2 coat protein: 44.1 nM

## GGAGAUACAUGAGGAUCACCCAUGUAGGAUAUAUAGUAUAUAUAUAUUGAAAGAUAUAUAUAUAUAUAGAAGGGCGUGCACACC [#LOL-17] (puzzle (switch architecture): Small Loop Exclusion NG 3)
MS2 coat protein [2]; input ligand: FMN 200 uM
  apparent KD of MS2 coat protein: 6.32 nM
MS2 coat protein [2]; input ligand: none
  apparent KD of MS2 coat protein: 8.77 nM

## AAUAAUCUUUAAGGAUAUCAGUGGCAAAGCCACUGAGAAGGUGAGGAUCACCCACCUACGUGACCCUGGAAACAGGGUCACGAA [#SharedSequence - ExNG1-10] (puzzle (switch architecture): Exclusion NG 1)
MS2 coat protein [2]; input ligand: FMN 200 uM
  apparent KD of MS2 coat protein: 15.4 nM
MS2 coat protein [2]; input ligand: none
  apparent KD of MS2 coat protein: 14.3 nM

## UCAGGUCGGGAAGGAUAUCGGCCGCAGAGAGCUCGAGAAGGUCCCGACAUGAGGAUCACCCAUGUUGAAGGAUCCUAACGUGCC [Maonan]
MS2 coat protein [1]; input ligand: FMN 200 uM
  apparent KD of MS2 coat protein: 35.4 nM
MS2 coat protein [1]; input ligand: none
  apparent KD of MS2 coat protein: 38.3 nM

## GCACUGGAUGUAGGAUAUCAGGACGAUAAGUCCUGAGAAGGACAUGAGGAUCACCCAUGUCCCAAAACCAGUGCAUAUAAUAUA [Denovo Exng1 31]
MS2 coat protein [1]; input ligand: FMN 200 uM
  apparent KD of MS2 coat protein: 19.8 nM
MS2 coat protein [1]; input ligand: none
  apparent KD of MS2 coat protein: 14.3 nM
